Source: patent US12454527B2, “Conjugate monomethyl auristatin E to obtain a composition for treatment of prostate cancer” (priority 2019, dated 2025)
Values joined by “and” are separate entries in the source; they are usually repeats but may differ in a detail not shown here. Equal values may be shown once. Starred links: 1 amine or outer side, 2 acyl side, 3 side chain; linkers in the order of their positions; H or OH if unused. Non-standard residues stand in square brackets, D forms with d. Residues, ends and D or L forms follow the SMILES beside them. ξ: configuration not given here. *: point of attachment. GluureaLys(ε-3-ClBenzyl) = O=C(O)CC[C@H](NC(=O)N[C@@H](CCCCN(Cc1cccc(Cl)c1)*)C(=O)O)C(=O)O; Dolaproine = CO[C@@H]([C@@H]1CCCN1)[C@@H](C)C(=O)O; Dil = CC[C@H](C)[C@H](NC)[C@@H](CC(=O)O)OC; X1 = O=C(CCCc1cn(CCCN[*:1])nn1)[*:2]; PABC = O=C(OCc1ccc(N[*:1])cc1)[*:2]; X2 = C[C@@H](N*)[C@@H](O)c1ccccc1; Cit = NC(=O)NCCC[C@H](N)C(=O)O; Suc = O=C(CCC(=O)[*:2])[*:1]; NMeV = CN[C@H](C(=O)O)C(C)C; ξV = CC(C)C(N)C(=O)O; Ahx = NCCCCCC(=O)O

Experiments:
[1] = Assessment of the tolerability in the 22Rv1 xenograft study (body weight, survival, general health); assay type: in vivo, mice; details: 0.3 mg/kg; for Body weight of mice (M ± m): in g (unit assumed)
Melanoma B16 = experiment: Antineoplastic activity on melanoma B16 model (tumor growth inhibition); assay type: in vivo; details: for Tumor volume, Mean / TGI %: B16, 1.0 mg/kg; for TGI %: vs TGC; for Tumor volume (individual tumors): s.c. B16 melanoma, 1.0 mg/kg i.p. x3, 1 mg/kg
Description: Melanoma B16-30 days after the first product administration (the product administration was started 48 hours after revaccination) and it was administered 3 times intraperitoneally in 5 days,
• 1. Group 1—diluent (placebo) • 2. Group 2—intraperitoneal Conjugate (I) administration in a dose of 1 mg/kg 3 times:
Experimental animals of control group (TGC) were administered with the diluent (DMSO+Haemodes) of similar Volume (placebo product). The measurement of tumor node was performed three times (on. Day 1, 4 and 8 after treatment completion), The antineoplastic activity was determined according to the standard parameters: tumor growth inhibition TGI (>50%). The survival observation was continued up to 30 days (Table 3).

[2] = Chronic toxicity study, intravenous once every 3 weeks, rats; assay type: in vivo; details: for Necropsy / Signs of intoxication: male rats
From the text: Chronic toxicity study of Conjugate (1) product on Rats and rabbits.
• 1. Conjugate (I). • 2. Solubilizer Pluronic F127—in the amount, five-fold greater than the conjugate amount by weight. • 3. Diluent—Haemodes infusion solution. • 4. Dimethyl sulfoxide—in the amount of 5% of the prepared volume.
A 1 00 white ° inbred mature male rats about 2 months old with a body weight of 190-210 g and 60 sexually mature male rabbits of the Soviet Chinchilla breed about 2 months old with a body weight of […] were involved in the experiment.
The study design determined the intravenous administration of the test drugs once every 3 weeks for 3 months (a total of 4 injections) for the experiment of chronic toxicity determination. The local irritant effect of the products within intravenous administration will be studied together with the chronic toxicity study.
Each animal received the intravenous injection of the test drug or the reference drug in a volume not exceeding the acceptable volume for a single injection of 2 mL for rats and 20 mL for rabbits. The products were replaced with a Pluronic solution with DMSO in Haemodes in the control group of animals. The duration of observation for laboratory animals was 4 weeks (intermediate stage).
Apparent signs of intoxication were evaluated daily. During the study, integral indicators of animal health were recorded (see Tables 15. 16, 17).

Lymphoid Leukosis P388 = experiment: Antineoplastic activity on lymphoid leukosis P388 model (lifespan/survival); assay type: in vivo, male mice BDF1; details: 0.5 and 1 mg/kg
Description: Lymphoid Leukosis P388 (male mice BDF1)—observation was held for 30 days since the first product administration (the product administration was started 24 hours after revaccination) and it was administered 3 times intraperitoneally in a day.
• 1. Group 1—tumor growth control (TGC) • 2. Group 2—placebo (diluent) • 3. Group 3—intraperitoneal Conjugate (I) administration in a dose of 0.5 mg/kg 3 times; • 4. Group 4—intraperitoneal Conjugate (I) administration in a dose of 1.0 mg/kg 3 times:
Experimental animals of control group (TGC) were administered with 0.9% saline, the placebo group was injected with the diluent (DMSO+Haemodes) of similar volume. The antineoplastic activity was determined according to mice lifespan.

[3] = Acute toxicity study, single intravenous administration, rats; assay type: in vivo; details: male rats
From the text: Acute toxicity study of Conjugate (I) product on mice and rats.
• 1. Conjugate (I). • 2. Solubilizer Pluronic F127—in the amount, five-fold greater than the conjugate amount by weight. • 3. Diluent Haemodes infusion solution. • 4. Dimethyl sulfoxide—in the amount of 5% of the prepared volume.
The experiment took white outbred male mice aged about 2 months with body weight of 19-21,g, and also white outbred mature male rats aged about 2 months with body weight 190-210 g.
Acute toxicity study was performed within the intravenous administration. Before the start of the experiment to determine an acute toxicity, the animals were deprived of food and water (mice were deprived for 2 hours, rats—for 10-12 hours), and then weighed. Then each animal received the intravenous drug injection according to the study design, in a volume not exceeding the acceptable single injection volume: 0.5 mL for mice, 2 mL for rats, and fractionally if necessary. The control group of animals received Pluronic solution in Haemodes in the proportion used fort dose preparation of 78 mg/kg for mice and 38 mg/kg for rats. The duration of observation for laboratory animals was 14 days. During this period, visible signs of intoxication were assessed (see Table 9).

[4] = group 2, 150 μg/kg intravenously 1 time in 3 weeks
[5] = group 3, 188 μg/kg intravenously 1 time in 3 weeks

CC[C@H](C)[C@@H]([C@@H](CC(=O)N1CCC[C@H]1[C@H](OC)[C@@H](C)C(=O)N[C@H](C)[C@@H](O)c1ccccc1)OC)N(C)C(=O)[C@@H](NC(=O)[C@H](C(C)C)N(C)C(=O)OCc1ccc(NC(=O)[C@H](CCCNC(N)=O)NC(=O)C(NC(=O)CCCc2cn(CCCNC(=O)[C@H](Cc3ccc(O)cc3)NC(=O)[C@H](Cc3ccccc3)NC(=O)CCC(=O)NCCCCCC(=O)N(CCCC[C@H](NC(=O)N[C@@H](CCC(=O)O)C(=O)O)C(=O)O)Cc3cccc(Cl)c3)nn2)C(C)C)cc1)C(C)C (some centres unmarked) [Conjugate (I)] ({GluureaLys(ε-3-ClBenzyl)-Ahx-Suc}-FY[X1][ξV][Cit][PABC][NMeV]V[Dil][Dolaproine]-X2)
Body weight of mice (M ± m) ([1]; day 0 after treatment initiated): 22.2 ± 0.53 | Body weight of mice (M ± m) ([1]; day 2): 21.2 ± 0.36 | Body weight of mice (M ± m) ([1]; day 4): 18.0 ± 0.48 | Body weight of mice (M ± m) ([1]; day 6): 19.2 ± 0.35 | Body weight of mice (M ± m) ([1]; day 8): 19.4 ± 0.4 | Death cases ([1]; mice): no death cases | Survival ([1]; mice, whole experiment): 100% | General health and mice behavior ([1]; within and after intake): satisfactory without any pathologic changes and gastrointestinal and any other toxicity | Tumor volume, Mean (Melanoma B16; day 1): 66 mm^3 | TGI % (Melanoma B16; day 1): 75% | Tumor volume, Mean (Melanoma B16; day 4): 433 mm^3 | TGI % (Melanoma B16; day 4): 62% | Tumor volume, Mean (Melanoma B16; day 8): 898 mm^3 | TGI % (Melanoma B16; day 8): 61% | Tumor volume (individual tumors) (Melanoma B16; day 1 after treatment): 135 mm^3 and 72 mm^3 and 64 mm^3 (2×) and 48 mm^3 and 90 mm^3 and 36 mm^3 and 16 mm^3 | Tumor volume (individual tumors) (Melanoma B16; day 4): 768 mm^3 and 364 mm^3 and 476 mm^3 and 220 mm^3 and 544 mm^3 and 525 mm^3 and 120 mm^3 and 448 mm^3 | Tumor volume (individual tumors) (Melanoma B16; day 8): 1,030 mm^3 and 855 mm^3 (2×) and 1,045 mm^3 and 675 mm^3 and 1,144 mm^3 and 972 mm^3 and 560 mm^3 | Necropsy [2, 4]: None | Signs of intoxication [2, 4]: No signs of intoxication | Necropsy [2, 5]: None | Signs of intoxication [2, 5]: No signs of intoxication | Necropsy ([2]; group 4, 225 μg/kg intravenously 1 time in 3 weeks): None | Signs of intoxication ([2]; group 4, 225 μg/kg, 2-3 days after the first administration, all animals, finishing on days 6-7): group developed diarrhea finishing on | Signs of intoxication ([2]; group 4, 225 μg/kg, 2-3 days after the second administration): animals showed diarrhea. | Main observed toxic effect ([2]; rats, chronic): decreased body weight gain | Rat excretory system: urine volume ([2]; rats, chronic): reliable decreased urine volume | Chronic toxicity (overall) ([2]; rats, i.v. once every 3 weeks, intermediate stage 4 weeks): moderate toxicity | Antineoplastic activity (Lymphoid Leukosis P388): presence of the antineoplastic activity | Body weight effect (summary) ([3]; all test doses): decreased growth rate or decreased body weight regarding the initial One | Fatality ([3]; i.v. 4 mg/kg): 0 | Fatality ([3]; i.v. 4.5 mg/kg): 3 | Fatality ([3]; i.v. 5 mg/kg): 5
